Results taken from patent US20260055200A1, “COMBINATION THERAPIES” (Alligator Bioscience AB, priority 2022, published 2026).

System: IFN-γ, MCP-1, B cell margination, B cell activation
Assay: OPTIMIZE-1 peripheral blood pharmacodynamics (cytokines/chemokines, immunophenotyping)
Assay type: in vivo, human
Conditions: 450 and 900 μg/kg mitazalimab
Description: The aim with the pharmacodynamic biomarkers is to characterize changes in intratumoural and systemic immune activation associated with mode of action of mitazalimab and correlate pharmacodynamic effects with clinical response. Disease progression and treatment response will also be followed with liquid biopsies, analysing biomarkers such as Carbohydrate antigen 19-9 (CA19-9) and circulating tumour DNA (ctDNA). All biomarker analyses in blood and tumour biopsies may be exploratory in nature. All exploratory analyses were performed at a fit-for-purpose laboratory, as the data from the analyses are for scientific use and decision making only. […]
Different types of blood samples will be taken and the following pharmacodynamic biomarkers may be evaluated: • Cytokines and chemokines: Serum samples are to be analysed for levels of cytokines and chemokines involved in the immune activation of mitazalimab, including but not limited to IFN-γ, TNF-α, IL12p70, IL-6, MCP-1, IP-10, MIP-1α, MIP-1β and IL-8; e.g., using a 30-plex kit with Luminex, MSD or similar. • Immune phenotyping: Whole blood samples will be used for immunophenotyping of whole blood for quantification of immune cell populations and immune cell activation directly or indirectly involved with immune activation of mitazalimab using flow cytometry. […]

B1: Mitazalimab: agonistic, human monoclonal (IgG1) antibody targeting CD40 (antibody, chains of the INN, looked up, V domains shown)
VH: EVQLLESGGGLVQPGGSLRLSCAASGFTFSTYGMHWVRQAPGKGLEWLSYISGGSSYIFYADSVRGRFTISRDNSENALYLQMNSLRAEDTAVYYCARILRGGSGMDLWGQGTLVTVSS
VL: QSVLTQPPSASGTPGQRVTISCTGSSSNIGAGYNVYWYQQLPGTAPKLLIYGNINRPSGVPDRFSGSKSGTSASLAISGLRSEDEADYYCAAWDKSISGLVFGGGTKLTVL
  cytokines and chemokines (IFN-γ, MCP-1) in peripheral blood: increases in peripheral blood were observed
